We go through eight molecules from PMC4119751 (Biochemistry, 2013).

Read-outs that look alike come from different tables or passages of the source. Bridge positions count the residues as written; N and C are the ends. Ends that are not written are not given here.

The target in experiment [1] is Env of HIV-1 SF162 on pseudovirus (HIV-1 strain SF162).
The target in experiment [2] is V3_(MNCYCLIC) 14mer peptide … (HIV-1 strain MN). In words: ITC. For orientation: ITC needs no label: the signal is the heat of the interaction.
The subject of experiment [3] is wild type Fv 447–52D. In words: ITC, V3 peptide variants titrated into wild type Fv 447–52D. The experiment is classed as binding, human. To be noted: linear and cyclic V3 with wild type Fv, ITC 25 °C.
Experiment [4] has as its target T1, 14-mer V3 peptide KRIHIGPGRAFYTT (MN sequence) (HIV-1 strain MN, V3 crown (peptide)).
T1 chain: KRIHIGPGRAFYTT
In words: ITC.

For experiment [5], the target named is T1, 14-mer V3 peptide KRIHIGPGRAFYTT (MN …). In words: ITC.
In experiment [6] the target is T2, V3 peptide with Arg^315Gln mutation KRIHIGPGQAFYTT (HIV-1 strain MN, V3 crown, Arg315Gln …, point mutant).
T2 chain: KRIHIGPGQAFYTT
In words: ITC.

Experiment [7] concerns the target T1, 14-mer V3 peptide KRIHIGPGRAFYTT (MN …). In words: ITC.
In experiment [8] the test system is SF162 pseudovirus. In words: TZM-bl neutralization assay against SF162 pseudovirus. It counts as cell-based, HIV-1. To be noted: Fv mutant vs wild type Fv.

Fv 447–52D wild type came in with an IC50 of neutralisation of SF162 pseudovirus, TZM-bl cells (luciferase) in experiment [1] of 19 µM. In addition, the Kd – broadly, a measure of binding affinity in units of concentration – in experiment [2] turned out to be 0.016 µM.
“CRIHIGPGRAFYTC (disulfide 1-14 (inferred)) [V3 Cyclic]”: the “effect of cyclization on affinity (in words)” value in experiment [3] is “cyclization of the V3 crown did not affect much of its interaction with mAb 447–52D”.

B1: Fv 447–52D Tyr^H100JThr (other, human)
VH: EVQLVESGGGLVKPGGSLRLTCVASGFTFSDVWLNWVRQAPGKGLEWVGRIKSRTDGGTTDYAASVKGRFTISRDDSKNTLYLQMNSLKTEDTAVYSCTTDGFIMIRGVSEDYYYTYMDVWGKGTTVTVSS
VL: QSVLTQPPSVSAAPGQKVTISCSGSSSNIGNNYVLWYQQFPGTAPKLLIYGNNKRPSGIPDRFSGSKSGTSATLGITGLQTGDEADYFCATWDSGLSADWVFGGGTKLTVL
As to B1, the IC50 of neutralisation of SF162 pseudovirus, TZM-bl cells (luciferase) in experiment [1] stood at 23 µM. For the same molecule, in experiment [4], the other is 3.3 kcal/mol. Further, the Kd in experiment [5] was 1.3 µM.

B2: Fv 447–52D Asp^H95Asn (other, human)
VH: EVQLVESGGGLVKPGGSLRLTCVASGFTFSDVWLNWVRQAPGKGLEWVGRIKSRTDGGTTDYAASVKGRFTISRDDSKNTLYLQMNSLKTEDTAVYSCTTNGFIMIRGVSEDYYYYYMDVWGKGTTVTVSS
VL: QSVLTQPPSVSAAPGQKVTISCSGSSSNIGNNYVLWYQQFPGTAPKLLIYGNNKRPSGIPDRFSGSKSGTSATLGITGLQTGDEADYFCATWDSGLSADWVFGGGTKLTVL
Take B2: the IC50 of neutralisation of SF162 pseudovirus, TZM-bl cells (luciferase) in experiment [1] stood at 41 µM. The same molecule showed an other in experiment [4] of 5.04 kcal/mol. This molecule also had a Kd in experiment [5] of 3.9 µM.

B3: Fv 447–52D Trp^H33Ala (other, human)
VH: EVQLVESGGGLVKPGGSLRLTCVASGFTFSDVALNWVRQAPGKGLEWVGRIKSRTDGGTTDYAASVKGRFTISRDDSKNTLYLQMNSLKTEDTAVYSCTTDGFIMIRGVSEDYYYYYMDVWGKGTTVTVSS
VL: QSVLTQPPSVSAAPGQKVTISCSGSSSNIGNNYVLWYQQFPGTAPKLLIYGNNKRPSGIPDRFSGSKSGTSATLGITGLQTGDEADYFCATWDSGLSADWVFGGGTKLTVL
The molecule B3 gave an IC50 of neutralisation of SF162 pseudovirus, TZM-bl cells (luciferase) in experiment [1] of 68 µM. In experiment [4], the other came to 4.02 kcal/mol. In experiment [5], the Kd was 3.9 µM.

B4: Fv 447–52D wild type (other, human)
VH: EVQLVESGGGLVKPGGSLRLTCVASGFTFSDVWLNWVRQAPGKGLEWVGRIKSRTDGGTTDYAASVKGRFTISRDDSKNTLYLQMNSLKTEDTAVYSCTTDGFIMIRGVSEDYYYYYMDVWGKGTTVTVSS
VL: QSVLTQPPSVSAAPGQKVTISCSGSSSNIGNNYVLWYQQFPGTAPKLLIYGNNKRPSGIPDRFSGSKSGTSATLGITGLQTGDEADYFCATWDSGLSADWVFGGGTKLTVL
The molecule B4 had a dH in experiment [4] of -8.54 kcal/mol. The Kd in experiment [5] was determined as 0.023 µM; in experiment [6], 5.1 µM.

B5: Fv 447–52D Trp^L96Ala (other, human)
VH: EVQLVESGGGLVKPGGSLRLTCVASGFTFSDVWLNWVRQAPGKGLEWVGRIKSRTDGGTTDYAASVKGRFTISRDDSKNTLYLQMNSLKTEDTAVYSCTTDGFIMIRGVSEDYYYYYMDVWGKGTTVTVSS
VL: QSVLTQPPSVSAAPGQKVTISCSGSSSNIGNNYVLWYQQFPGTAPKLLIYGNNKRPSGIPDRFSGSKSGTSATLGITGLQTGDEADYFCATWDSGLSADAVFGGGTKLTVL
Molecule B5 showed an IC50 of neutralisation of SF162 pseudovirus, TZM-bl cells (luciferase) in experiment [1] of 50 µM. The same molecule had an other in experiment [4] of 1.22 kcal/mol. Also, in experiment [7], the Kd is 1.8 µM.

B6: Fv 447–52D Trp^L91Ala (other, human)
VH: EVQLVESGGGLVKPGGSLRLTCVASGFTFSDVWLNWVRQAPGKGLEWVGRIKSRTDGGTTDYAASVKGRFTISRDDSKNTLYLQMNSLKTEDTAVYSCTTDGFIMIRGVSEDYYYYYMDVWGKGTTVTVSS
VL: QSVLTQPPSVSAAPGQKVTISCSGSSSNIGNNYVLWYQQFPGTAPKLLIYGNNKRPSGIPDRFSGSKSGTSATLGITGLQTGDEADYFCATADSGLSADWVFGGGTKLTVL
In experiment [1], B6 came in with an IC50 of neutralisation of SF162 pseudovirus, TZM-bl cells (luciferase) of 76 µM. The other in experiment [4] was 4.72 kcal/mol. Besides, in experiment [8], the “fold decrease in neutralization capability” value came out at 4.0 fold. In addition, the Kd in experiment [7] is 5.4 µM.
